In US20250382363A1 (NUMAB THERAPEUTICS, published 2025):

Legend:
[1] = target: T1, human a-PD-L1 Fc (Sino Biological, 10084-H02H, LC11NO2402) (human, UniProt Q9NZQ7 19-239); experiment: SPR, PD-L1 Fc immobilised, scFv analyte, 1:1 fit
T1 construct: Bought Fc fusion immobilised on the SPR chip; Printed as 'a-PD-L1 Fc' but used as the antigen (ligand) for the anti-PD-L1 scFvs; also called Human PD-L1; not shown: Fc part
Experimental: The mutation variants were then injected at concentrations of 10 nM, 2 nM and 0.4 nM over the ligand-immobilized and reference spots. The wild type variants were used as a control, while an empty spot was used as reference.
After each cycle with analyte, the surface was regenerated with a 3M MgCl₂ solution, thereby allowing the next analyte cycle to have only free ligand available. Binding affinity KD was globally calculated by the Bruker SPR software based on the binding association (kₒₙ) and dissociation (Koff) rate, by fitting a 1:1 Langmuir model to the curves obtained by the cycles with the three different concentrations of the analyte.

[2] = target: pre-existing anti-drug antibodies (ADA) present in human sera; experiment: pre-existing ADA ELISA, scFv coated, human sera unspiked vs spiked

T1 sequence (Q9NZQ7 19-239 limits assumed): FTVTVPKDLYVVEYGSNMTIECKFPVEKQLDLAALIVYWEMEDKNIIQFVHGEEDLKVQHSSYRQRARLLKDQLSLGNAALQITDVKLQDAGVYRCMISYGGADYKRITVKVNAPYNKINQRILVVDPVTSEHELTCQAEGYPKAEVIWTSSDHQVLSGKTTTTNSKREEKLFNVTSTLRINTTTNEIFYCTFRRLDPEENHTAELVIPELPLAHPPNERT

B1: PRO2950 (scFv 37-20-B03-sc09.1_(T146Q)) (scFv)
scFv: DIQMTQSPASLSASVGDRVTITCQASQSIGTYLAWYQQKPGKPPKLLIYRAFILASGVPSRFSGSGSGTDFTLTISSLQPEDFATYYCQSNFYSDSTTIGPNAFGTGTKVTVLGGGGGSGGGGSGGGGSGGGGSEVQLVESGGGLVQPGGSLRLSCAASGFSFNSDYWIYWVRQAPGKGLEWIASIYGGSSGNTQYASWAQGRFTISRDNSKNTVYLQMNSLRAEDTAVYFCARGYVDYGGATDLWGQGTLVQVSS
notes: PRO2230 variant; VH substitution, AHo numbering; also called PRO2230 T146Q
B1 gave a Kd [1] of 64 pM, a n-fold to wt [1] of 1.3 fold and a Mean No of serum samples >30% inhibition (30% CCP) with SCP (serum samples) [2] of 4. For the same binder, the No of serum samples >30% inhibition (30% CCP) without SCP (serum samples) [2] was 4.

B2: PRO2951 (scFv 37-20-B03-sc09.1_(T101R)) (scFv)
scFv: DIQMTQSPASLSASVGDRVTITCQASQSIGTYLAWYQQKPGKPPKLLIYRAFILASGVPSRFSGSGSGTDFTLTISSLQPEDFATYYCQSNFYSDSTTIGPNAFGTGTKVTVLGGGGGSGGGGSGGGGSGGGGSEVQLVESGGGLVQPGGSLRLSCAASGFSFNSDYWIYWVRQAPGKGLEWIASIYGGSSGNTQYASWAQGRFTISRDNSKNTVYLQMNSLRAEDRAVYFCARGYVDYGGATDLWGQGTLVTVSS
notes: PRO2230 variant; VH substitution, AHo numbering; also called PRO2230 T101R
In the case of B2, the Kd [1] is reported as 42 pM, the n-fold to wt [1] is reported as 0.9 fold and the Mean No of serum samples >30% inhibition (30% CCP) with SCP (serum samples) [2] is reported as 1. The No of serum samples >30% inhibition (30% CCP) without SCP (serum samples) [2] was 0.

B3: PRO2952 (scFv 37-20-B03-sc09.1_(T101S)) (scFv)
scFv: DIQMTQSPASLSASVGDRVTITCQASQSIGTYLAWYQQKPGKPPKLLIYRAFILASGVPSRFSGSGSGTDFTLTISSLQPEDFATYYCQSNFYSDSTTIGPNAFGTGTKVTVLGGGGGSGGGGSGGGGSGGGGSEVQLVESGGGLVQPGGSLRLSCAASGFSFNSDYWIYWVRQAPGKGLEWIASIYGGSSGNTQYASWAQGRFTISRDNSKNTVYLQMNSLRAEDSAVYFCARGYVDYGGATDLWGQGTLVTVSS
notes: PRO2230 variant; VH substitution, AHo numbering; also called PRO2230 T101S
Binder B3 has a Kd [1] of 36 pM, a n-fold to wt [1] of 0.7 fold and a Mean No of serum samples >30% inhibition (30% CCP) with SCP (serum samples) [2] of 5. For the same binder, the No of serum samples >30% inhibition (30% CCP) without SCP (serum samples) [2] was 8.

B4: PRO2984 (scFv 37-20-B03-sc09.1_(L12S, V103T, L144T)) (scFv)
scFv: DIQMTQSPASLSASVGDRVTITCQASQSIGTYLAWYQQKPGKPPKLLIYRAFILASGVPSRFSGSGSGTDFTLTISSLQPEDFATYYCQSNFYSDSTTIGPNAFGTGTKVTVLGGGGGSGGGGSGGGGSGGGGSEVQLVESGGGSVQPGGSLRLSCAASGFSFNSDYWIYWVRQAPGKGLEWIASIYGGSSGNTQYASWAQGRFTISRDNSKNTVYLQMNSLRAEDTATYFCARGYVDYGGATDLWGQGTTVTVSS
notes: VH substitutions, AHo numbering; also called PRO2230-L12S-V103T-L144T
Binder B4 has a Kd [1] of 36 pM, a n-fold to wt [1] of 0.7 fold and a Mean No of serum samples >30% inhibition (30% CCP) with SCP (serum samples) [2] of 5. The No of serum samples >30% inhibition (30% CCP) without SCP (serum samples) [2] was 5.

B5: PRO2985 (scFv 37-20-B03-sc09.1_(T101A)) (scFv)
scFv: DIQMTQSPASLSASVGDRVTITCQASQSIGTYLAWYQQKPGKPPKLLIYRAFILASGVPSRFSGSGSGTDFTLTISSLQPEDFATYYCQSNFYSDSTTIGPNAFGTGTKVTVLGGGGGSGGGGSGGGGSGGGGSEVQLVESGGGLVQPGGSLRLSCAASGFSFNSDYWIYWVRQAPGKGLEWIASIYGGSSGNTQYASWAQGRFTISRDNSKNTVYLQMNSLRAEDAAVYFCARGYVDYGGATDLWGQGTLVTVSS
notes: PRO2230 variant; VH substitution, AHo numbering; also called PRO2230 T101A
B5 was tested, and the Kd [1] was 47 pM, the n-fold to wt [1] was 1 fold and the Mean No of serum samples >30% inhibition (30% CCP) with SCP (serum samples) [2] was 2. For the same binder, the No of serum samples >30% inhibition (30% CCP) without SCP (serum samples) [2] was 2.

B6: PRO2986 (scFv 37-20-B03-sc09.1_(T146A)) (scFv)
scFv: DIQMTQSPASLSASVGDRVTITCQASQSIGTYLAWYQQKPGKPPKLLIYRAFILASGVPSRFSGSGSGTDFTLTISSLQPEDFATYYCQSNFYSDSTTIGPNAFGTGTKVTVLGGGGGSGGGGSGGGGSGGGGSEVQLVESGGGLVQPGGSLRLSCAASGFSFNSDYWIYWVRQAPGKGLEWIASIYGGSSGNTQYASWAQGRFTISRDNSKNTVYLQMNSLRAEDTAVYFCARGYVDYGGATDLWGQGTLVAVSS
notes: PRO2230 variant; VH substitution, AHo numbering; also called PRO2230 T146A
B6 was tested, and the Kd [1] was 69 pM, the n-fold to wt [1] was 1.4 fold and the Mean No of serum samples >30% inhibition (30% CCP) with SCP (serum samples) [2] was 8. It also gave a No of serum samples >30% inhibition (30% CCP) without SCP (serum samples) [2] of 2.

B7: PRO2987 (scFv 37-20-B03-sc09.1_(P15A)) (scFv)
scFv: DIQMTQSPASLSASVGDRVTITCQASQSIGTYLAWYQQKPGKPPKLLIYRAFILASGVPSRFSGSGSGTDFTLTISSLQPEDFATYYCQSNFYSDSTTIGPNAFGTGTKVTVLGGGGGSGGGGSGGGGSGGGGSEVQLVESGGGLVQAGGSLRLSCAASGFSFNSDYWIYWVRQAPGKGLEWIASIYGGSSGNTQYASWAQGRFTISRDNSKNTVYLQMNSLRAEDTAVYFCARGYVDYGGATDLWGQGTLVTVSS
notes: PRO2230 variant; VH substitution, AHo numbering; also called PRO2230 P15A
B7 was tested, and the Kd [1] was 48 pM, the n-fold to wt [1] was 1 fold and the Mean No of serum samples >30% inhibition (30% CCP) with SCP (serum samples) [2] was 2. It also gave a No of serum samples >30% inhibition (30% CCP) without SCP (serum samples) [2] of 7.
